Target: the molecule itself
Test: cryo-EM structure

B1: human DNA polymerase theta helicase domain (Polθ-HLD), residues 67-940 (domain or fragment, UniProt O75417 67-940, looked up)
chain: DKLLLANWGLPKAVLEKYHSFGVKKMFEWQAECLLLGQVLEGKNLVYSAPTSAGKTLVAELLILKRVLEMRKKALFILPFVSVAKEKKYYLQSLFQEVGIKVDGYMGSTSPSRHFSSLDIAVCTIERANGLINRLIEENKMDLLGMVVVDELHMLGDSHRGYLLELLLTKICYITRKSASCQADLASSLSNAVQIVGMSATLPNLELVASWLNAELYHTDFRPVPLLESVKVGNSIYDSSMKLVREFEPMLQVKGDEDHVVSLCYETICDNHSVLLFCPSKKWCEKLADIIAREFYNLHHQAEGLVKPSECPPVILEQKELLEVMDQLRRLPSGLDSVLQKTVPWGVAFHHAGLTFEERDIIEGAFRQGLIRVLAATSTLSSGVNLPARRVIIRTPIFGGRPLDILTYKQMVGRAGRKGVDTVGESILICKNSEKSKGIALLQGSLKPVRSCLQRREGEEVTGSMIRAILEIIVGGVASTSQDMHTYAACTFLAASMKEGKQGIQRNQESVQLGAIEACVMWLLENEFIQSTEASDGTEGKVYHPTHLGSATLSSSLSPADTLDIFADLQRAMKGFVLENDLHILYLVTPMFEDWTTIDWYRFFCLWEKLPTSMKRVAELVGVEEGFLARCVKGKVVARTERQHRQMAIHKRFFTSLVLLDLISEVPLREINQKYGCNRGQIQSLQQSAAVYAGMITVFSNRLGWHNMELLLSQFQKRLTFGIQRELCDLVRVSLLNAQRARVLYASGFHTVADLARANIVEVEVILKNAVPFKSARKAVDEEEEAVEERRNMRTIWVTGRKGLTEREAAALIVEEARMILQQDLVEMGVQWNPCALLHSSTCSLTHSESEVKEHTFISQTKSSYKKLTSKNKS
stoichiometry N: 2
